From patent US20090170751A1 come the findings set out here.

This test has as its target Plasma fibronectin, affinity purified from human plasma (human) (UniProt P02751). In words: cell-based or functional assay.

A value given as a limit tells only on which side of the number the result lay.

Chain of Plasma fibronectin, affinity purified from human plasma (human) (P02751 32-2477): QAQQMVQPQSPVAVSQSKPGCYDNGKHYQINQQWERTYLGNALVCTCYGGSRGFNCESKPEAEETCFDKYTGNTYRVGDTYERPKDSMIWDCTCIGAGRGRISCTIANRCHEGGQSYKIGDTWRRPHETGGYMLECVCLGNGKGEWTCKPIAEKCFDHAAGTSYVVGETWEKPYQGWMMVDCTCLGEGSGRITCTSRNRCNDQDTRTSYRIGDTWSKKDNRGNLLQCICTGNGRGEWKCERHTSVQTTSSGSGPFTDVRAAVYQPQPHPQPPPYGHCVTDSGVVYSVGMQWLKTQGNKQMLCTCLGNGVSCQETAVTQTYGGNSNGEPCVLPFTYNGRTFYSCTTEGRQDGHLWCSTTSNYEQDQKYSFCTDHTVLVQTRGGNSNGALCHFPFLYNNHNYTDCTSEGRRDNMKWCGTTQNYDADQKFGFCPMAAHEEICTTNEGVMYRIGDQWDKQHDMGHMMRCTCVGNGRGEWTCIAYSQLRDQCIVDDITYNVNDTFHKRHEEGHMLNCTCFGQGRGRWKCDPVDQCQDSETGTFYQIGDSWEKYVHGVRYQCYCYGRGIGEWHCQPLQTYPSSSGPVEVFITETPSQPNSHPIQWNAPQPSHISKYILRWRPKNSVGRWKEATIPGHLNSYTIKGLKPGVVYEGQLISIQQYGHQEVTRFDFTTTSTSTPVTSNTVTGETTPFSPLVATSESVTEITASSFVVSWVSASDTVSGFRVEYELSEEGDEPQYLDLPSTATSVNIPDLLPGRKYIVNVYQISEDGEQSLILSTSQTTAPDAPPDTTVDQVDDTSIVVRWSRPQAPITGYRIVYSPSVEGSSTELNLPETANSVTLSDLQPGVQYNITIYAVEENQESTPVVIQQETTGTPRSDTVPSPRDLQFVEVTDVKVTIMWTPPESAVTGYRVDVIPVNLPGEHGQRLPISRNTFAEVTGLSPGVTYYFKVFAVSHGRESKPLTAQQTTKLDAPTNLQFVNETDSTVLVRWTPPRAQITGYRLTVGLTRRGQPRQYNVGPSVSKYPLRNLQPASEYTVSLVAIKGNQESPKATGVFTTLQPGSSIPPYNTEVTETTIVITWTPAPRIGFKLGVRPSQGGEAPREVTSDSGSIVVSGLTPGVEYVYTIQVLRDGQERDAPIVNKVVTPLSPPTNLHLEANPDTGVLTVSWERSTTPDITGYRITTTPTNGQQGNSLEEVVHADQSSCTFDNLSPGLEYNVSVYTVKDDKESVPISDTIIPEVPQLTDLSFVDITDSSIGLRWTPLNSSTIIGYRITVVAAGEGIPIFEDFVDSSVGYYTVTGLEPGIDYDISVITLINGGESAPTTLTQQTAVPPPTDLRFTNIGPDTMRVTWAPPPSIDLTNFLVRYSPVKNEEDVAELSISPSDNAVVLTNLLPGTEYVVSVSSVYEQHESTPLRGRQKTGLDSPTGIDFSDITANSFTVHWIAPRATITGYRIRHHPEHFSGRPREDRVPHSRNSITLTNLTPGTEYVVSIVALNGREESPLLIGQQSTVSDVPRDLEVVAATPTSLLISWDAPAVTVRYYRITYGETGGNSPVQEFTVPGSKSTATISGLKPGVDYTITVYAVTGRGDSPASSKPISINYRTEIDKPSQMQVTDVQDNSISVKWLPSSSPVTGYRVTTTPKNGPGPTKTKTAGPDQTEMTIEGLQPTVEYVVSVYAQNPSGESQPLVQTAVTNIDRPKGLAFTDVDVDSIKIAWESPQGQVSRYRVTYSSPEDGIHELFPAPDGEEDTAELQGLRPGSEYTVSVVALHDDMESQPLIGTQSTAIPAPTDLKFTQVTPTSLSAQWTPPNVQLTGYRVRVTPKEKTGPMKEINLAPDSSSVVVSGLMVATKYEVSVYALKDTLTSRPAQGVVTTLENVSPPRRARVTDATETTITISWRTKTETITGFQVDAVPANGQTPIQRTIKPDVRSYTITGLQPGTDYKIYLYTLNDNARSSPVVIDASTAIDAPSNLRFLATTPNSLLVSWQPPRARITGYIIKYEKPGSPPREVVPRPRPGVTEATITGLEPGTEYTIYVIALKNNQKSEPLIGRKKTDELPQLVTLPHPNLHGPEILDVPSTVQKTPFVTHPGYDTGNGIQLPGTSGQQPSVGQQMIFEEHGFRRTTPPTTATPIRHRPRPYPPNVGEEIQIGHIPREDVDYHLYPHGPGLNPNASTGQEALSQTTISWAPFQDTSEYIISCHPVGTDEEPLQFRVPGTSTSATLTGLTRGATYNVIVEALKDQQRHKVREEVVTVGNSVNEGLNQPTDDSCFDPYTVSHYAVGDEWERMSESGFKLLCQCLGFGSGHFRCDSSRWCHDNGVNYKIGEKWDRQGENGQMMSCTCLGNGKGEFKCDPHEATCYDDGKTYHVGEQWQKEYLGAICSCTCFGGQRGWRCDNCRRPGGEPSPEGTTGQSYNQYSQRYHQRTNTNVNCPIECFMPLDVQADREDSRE
Chain of Recombinant Anastellin, P02751 631-703 (P02751 other isoform, or with tags, fused parts or gaps limits assumed): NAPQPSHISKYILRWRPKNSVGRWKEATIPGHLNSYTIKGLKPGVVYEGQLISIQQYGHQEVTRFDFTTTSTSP

In the case of Recombinant Anastellin, P02751 631-703, the fibronectin aggregation, increase in absorbance at 600 nm is more than 20 µM.
